Laboratory results: patent US20230355541A1, “ENZYMATICALLY CLEAVABLE SELF-ASSEMBLED NANOPARTICLES FOR MORPHOGEN DELIVERY” (UNIVERSITY OF SOUTH CAROLINA, priority 2019, published 2023)

target: T1, BSA (Bos taurus, UniProt P02769); test: Circular dichroism of BSA grafted to PxSPCP NPs; format: physicochemical, bovine; details: PBS, 20° C.
T1 construct: purchased Jackson ImmunoResearch (West Grove, Pa.)
Protocol: Bioactivity and Cell Compatibility of BMP2-PxSPCP NPs: Circular dichroism (CD) was used to determine the effect of grafting on secondary structure of the model BSA protein. CD spectra of free or grafted BSA in PBS were collected with a spectropolarimeter (JASCO J815, Essex, UK) at 20° C. with a cuvette of 0.1 cm path length. For evaluation of cell compatibility, hMSCs (1×10^6 cells/mL) and PxSPCP NPs (10 mg) were encapsulated in LPELA hydrogel and cultured in basal medium. At each time point, the hydrogels were stained with cAM/EthD live/dead assay (1 μg/mL) and the stained cells were imaged with an inverted fluorescent microscope (Nikon Eclipse Ti-ε, Nikon, Melville, N.Y.). To quantify cell viability, the medium was replaced with fresh medium containing 10% MTS and incubated for 6 hours at 37° C. and the sample absorbance was measured with a microplate reader (Molecular Devices, San Jose, Calif.) at a wavelength of 490 nm.

T1 sequence (P02769 25-607): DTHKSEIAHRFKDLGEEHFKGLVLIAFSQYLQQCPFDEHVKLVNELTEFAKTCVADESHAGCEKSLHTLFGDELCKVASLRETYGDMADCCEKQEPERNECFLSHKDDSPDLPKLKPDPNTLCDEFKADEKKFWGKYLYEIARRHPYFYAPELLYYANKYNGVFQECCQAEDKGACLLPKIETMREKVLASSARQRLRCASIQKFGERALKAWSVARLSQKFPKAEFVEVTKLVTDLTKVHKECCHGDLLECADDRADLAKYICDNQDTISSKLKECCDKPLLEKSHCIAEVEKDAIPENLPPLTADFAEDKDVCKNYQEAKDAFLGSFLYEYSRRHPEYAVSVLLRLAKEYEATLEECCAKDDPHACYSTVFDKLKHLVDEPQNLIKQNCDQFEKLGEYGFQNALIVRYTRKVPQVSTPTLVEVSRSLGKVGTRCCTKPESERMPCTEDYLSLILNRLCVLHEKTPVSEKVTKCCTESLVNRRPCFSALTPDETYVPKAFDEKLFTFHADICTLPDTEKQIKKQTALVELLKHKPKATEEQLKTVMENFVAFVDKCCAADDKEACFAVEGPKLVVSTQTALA

Substance	CD spectrum of grafted BSA compared with free BSA
BSA-P0.5SPCP NPs: BSA grafted to P0.5SPCP NPs	close to that of free BSA
BSA-P2SPCP NPs: BSA grafted to P2SPCP NPs	slight change
BSA-P5SPCP: BSA grafted to P5SPCP NPs	substantially different
BSA-P7.5SPCP: BSA grafted to P7.5SPCP NPs	substantially different
